The values that follow come from the DeepSol protein solubility set.

This data set can be described thus: soluble on expression in E. coli; label from the status in PepcDB or PDB records.
With “MILKRAYDVTPQKISTDKVRGVRKRVLIGLKDAPNFVMRLFTVEPGGLIDRHSHPWEHEIFVLKGKLTVLKEQGEETVEEGFYIFVEPNEIHGFRNDTDSEVEFLCLIPKEGGE”, the “soluble on expression in E. coli” value was “not soluble”. As for “MILTTSRKPSQRTRSFARDLERTLNIPYVQRGKLSLKEIFEIDKHVLLIGEFKANPGTLVVYDVENEKRLSSFISVKLQREICGEKIYNDDGIRIKISRELKDNEEFQKYYEIYDEFLFQHLNINEDSDITLRLEKDPKYLFAIQFYKGRVKIGPLIRIKSIKLFDSLLLEHHHHHH”, the entry is “soluble”.

Take “MILVIDVGNTNTVFGVYDGKKLLNHWRMETSKGKTSDEYGMFIVSLLSYEKIDVGKIEAVVIASVVPPIMYSLEHAIRKYFKLEPMVVGPGIKTGINIKYENPREVGADRIINAVAALELYGGPLIIVDFGTATTFCAVSSKGEYLGGVICPGIKISAEALFQKTAKLPKIDLVKPETVIGRNTVSSMQSGIIYGYVGEVDYIVRRMKKEMKEDNIKVIATGGLARLIASESETIDEINGLLTLEGLRIIYERNK”: the “soluble on expression in E. coli” value is given as “soluble”. For the sequence “MINTNLSSNESSAVYIHIPFCEHICYYCDFNKVFLEGQPVDEYVDLLIKEMELTVAKGPIAPVDTVFVGGGTPTTLNEAQIARLCTAIHNTLPLKKDIEFSFEANPGDLSLSKLQAMQDHGVNRISMGVQSFNNELLKKIGRIHTVKDVYQSVENMRKIGFENVSIDLIFSLPGQTEADFQDTLKQALDLDLPHYSAYSLIIEPKTIFYNLMQKGKLFLPGQDAEANMYDLLLNEMEKHGRKQYEISNFAKEGFQSKHNITYWSNEHYYGFGAGAHGYVGNTRYSNFGPIKKYMEPLQENILPTFQQKELTLKEKMEEEMFLGLRKVDGVDKKHFKQKFGQDLDATFANAIQKTTAKGWLENNEENVALTRSGRFLGNNVFQEFL”, the “soluble on expression in E. coli” value is given as “not soluble”.

For the sequence “MIPGEYRLREEPIVCNRQKSATKLTVVNRGDRPVQVGSHFHFFEVNSFLEFDRQAAYGKHLNIPAGTAVRFEPGDAKQVELVPFSGERRVYGLNNMVNGPLDGNGKGGVRE”, the “soluble on expression in E. coli” value was “soluble”.

For the sequence “MIPSQISFNTLPVNATYASETTVDTQKFSDILYSAGCSLKDMAYLSRCLASIHPTLAKNIYETENLSDQKLLHIDCRSTNEIKINIFFGQQREGLIEINSDTVIFSILSSLIDSAISKFQHQIPVNGSVNRELLYEDYTD”, the “soluble on expression in E. coli” value is “not soluble”. As for “MIQRFIELGEGYSDIYELIALAKANRHRLSGFFVFHTVKKGQAVVSLAIVLHPTDPGDFQPLYICREGIPDPSVKPNKRYELFMETAKELGMDVIHLDVKPSTMFAELDLYYQHLIGIMRMNRFIPPLQ”, the entry is “not soluble”. As for “MIQTPYYLIDADRLRQNMAVVDRLRQASGAKALLALKCFATWPAFEHMRDHMDGTTSSSLYELRLGREKFGKETHAYSVAWPDHEIDEAVGYADKIIFNSVGQLARFRNRTGGIARGLRLNPGLSTSGFDLADPARPFSRLGEWSAEKIEAVLPDISGVMIHYNCENADVDLFERQLSEIEGRFGAILDRLDWVSLGGGIHFTGEGYPVDRLAARLKAFAAAHGVQVYLEPGEAAITRSATLEVTVLDLLDNGKQLAIVDSSVEAHMLDLLIYRQSAKVEPDAGDHSYMVCGKSCLAGDIFGEFRFAQPLQVGDRLSIADAAGYTMVKKNWFNGVKMPSIVIREPDGSLRVAREFGYGDYASSLG”, the entry is “not soluble”; as for “MIQVENLTKTINNQMILEDISIDIEKGKLTSLIGPNGAGKSTLLSAICRLIRFENGEVKIDGQLMSDYKNNDLSKKISILKQTNHTEMNITVEQLVNFGRFPYSKGRLTKEDHDIVNDALDLLQLQDIRNRNIKSLSGGQRQRAYIAMTIAQDTEYILLDEPLNNLDMKHAVQIMQTLKMLAHKMNKAIVIVLHDINFASCYSDQIVALKNGQLVKSDLKDNVIQSSVLSDLYDMNIQIEHIRNQRICLYFKD”, “not soluble”. As for “MIRIDVVLPAYRPGQGWEREAISRLTALSDSIPDVTFRIFIVPDGSNEGHSDEVRSHWATSPWEVIYCDYAKNRGKGFAVRYGVGQTDAPFVLYTDYDLPFTLDSYKQVIEALLEGADVVISRREPESYGKKIRFKRKMLSDFSHFVNKFFFLPTTDTQGGLKGFSSTGRFIFLQTRIDSFLFDTEFICLAKRKKVCIAVVSGSIRPDISLSVMKAKTILREVYKIPKLIKARWFS”, the “soluble on expression in E. coli” value is reported as “not soluble”.

Take “MIRSATKEDGQAIARLVLVILKDMELPILEEVSEEQMIDLLAEATAYPTYRYGYQRILVYEHAGEVAGIAVGYPAEDEKIIDEPLREVFKKHGLAEDVRLFIEEETLPNEWYLDTISVDERFRGMGIGSKLLDALPEVAKASGKQALGLNVDFDNPGARKLYASKGFKDVTTMTISGHLYNHMQKEV”: the “soluble on expression in E. coli” value is recorded as “not soluble”. Under “MIRSIFIPPTSITATSRLFYGMRAYSTKLEKASLQKYLHDPVKVTVIPITDKESFIYYKHTDNLFNSQSRILKAEKWIVEKSAKLWRKLKKSPKSYNKKIVSMVQSLLNSTPWSENSLLTIPSESYILKRIKGEKDKTQEIRLTLKDYTVKAEQVDTQPLHVYYPPGISSPDECLRQMKKLYQEGLIYHKKWTLYCLLGLPLTIPLILIPLIPNVPGFYLSYRAYVNIKAYLGAKHLKSLLESSKQNLEFRELLGYTEVYKRGTSSRTQGNQKESKGAPELLLNKKTLPLILDFLEVHELESDLNKVILQESKSQEKNKI” stands “not soluble”. As for “MIRVHSYESMGTFDGPGLRLVVFLQGCNFRCLYCANPDTIDTKGESTETAIDEIVRMAVSQKAFFGKKGGVTFSGGEPTLQAKALIPLFQRLKEQNIHICIDTNGSIWNEEVEELLKWTDLVLLDIKEFNNVRHRQLTERSNEQTIRTAEWLEKNGKPFWLRYVLVPGYSSFEEDIRALGEHFKNYHMIQRVEILPYHTLGVHKYEAMGKEYKLNGIKENTLEQLETAKTLFGEYFNTVYLN”, the entry is “not soluble”. As for “MIRVIEKGDKVSLPFSRGILTRSITSVGIDVDLAYSIAIEVQEELVKKGKTIVTKDEIRKLTYQKLIEKGFKEEAKRYIFWRRFRKMKVPLIILLGGPTGVGKSTIATELAFRLGIRSVIGTDSIREVLRKIITPELLPTIHTSTFLAWKELKGTVTDSPIVAGFESQVSAVTVGINAIIERAVREGLNAIIEGIHVVPGFVKVEGEMTFMYMLIARSREDLEARFYERTRYSKRPADYYISHLDEILEIQDYLIRRAKKFNVPVIENVELEETVSKIMEDIMQKTIEIMKGKGLDLLEEP”, the entry is “soluble”; as for “MIRWFRNFGALFKKPRGAGLMKNEQTHNLQRVVQNDITCPEEQRSTGGKGGGGGSHGGHGGSHGGSHGGHGSHGGSYGGHSGHGRSFSTSSGSSGYRGLSSGSTNTSYSKSTPRTNSGYSTGKTTKTASSSRNYSNTSSTRSTTKPSKSSYSKRSTKSTKSLNYSSSSLGSKSIEKSRRSSRKSGSRQDSVASRRQLRSVSSKPQKKYVATDMPSTVSTGRSRGRSVYRRNNVNADVSQRQSRSMSVSRGRSRNRSQNRERSPSIEKSTRSQHVSRKDAFNSHDVLSPTNRSGSVHRSHSAHHERTFEERHKTPNGVWNEMFPKGTLVMYTDGSYLKRPPTSGIGIFVGPGHELNRSQRIRGPIQDNNYAEFIAVRTALQNALKNENYRDQKVVIRTDCLNVIEALQGTRPTAFVDVKSQVEFLSKQFPKGVHFQHVYAHAGDPGNEMADLFAGQASSKSQNSFGGGQRTRSASTARGRSRERNRLRSKSNDPSFIRSRSHSIHSRK”, “not soluble”. Take “MISASLQQRKTRTRRSMLFVPGANAAMVSNSFIYPADALMFDLEDSVALREKDTARRMVYHALQHPLYRDIETIVRVNALDSEWGVNDLEAVVRGGADVVRLPKTDTAQDVLDIEKEILRIEKACGREPGSTGLLAAIESPLGITRAVEIAHASERLIGIALGAEDYVRNLRTERSPEGTELLFARCSILQAARSAGIQAFDTVYSDANNEAGFLQEAAHIKQLGFDGKSLINPRQIDLLHNLYAPTQKEVDHARRVVEAAEAAAREGLGVVSLNGKMVDGPVIDRARLVLSRAELSGIREE”: the “soluble on expression in E. coli” value is “soluble”. Under “MISIKVLFFGEACQLVGKREEAIDFPEETDYEEIRKTILENYPALQKIEKVMMLAVDQEYANPGDRFELVRFTEIAVIPPLSGG” stands “soluble”. Under “MISILRRGLLVLLAALPLLANAASTPSAHDLVQDTTTRLLADLAANKEKYKQSPNDFYNALNSIVGPVVDADGISRSIMTVKYSRKATPEQMVRFQENFKRSLMQFYGNALLEYNNQGITVSPAKDESGTRTSVDMQVKGNNGAIYPVSYTLEKINDEWKVRNVIINGINIGKLFRDQFADAMQRNGNNLDKTIDGWAGEVAKAKEVTEDAAQKAAQLEHHHHHH” stands “soluble”. Under “MISIVGIGSGNRVEELTIKAYNTLKNSDIGIYPGNFIGEELKELFEDKTMFTGRDITSEKIKNIFHNNRDKNICLMVSGDPALYSGQFNTNLCLDEHIKWFNEHNYNYEMIPGLSSLSILCAKKSIDLTPFSKTQNVFITSIERLRDLKCFNYTELKSILSTKPVLALYQSLKEFDNIKSLLMEFYPPTTKVIFAQSLSWSNECIFETDLKTLNETESTTSQFNDQTLILVYPSTILTIK” stands “not soluble”.

Consider “MISNNTRRVYRISFSFFEQYCLEHNLQSLPADPRSIISFIGHQKELLQASTGMQLSKQTLTTRIAAIRFYHIQAGFPTPTEHPQVIRVMRGLSRNHHRLVQDYDQQPLEHHHHHH”, for which the “soluble on expression in E. coli” value is “not soluble”. “MISPQEQQKQEIATTPSGTKENEKLVVPGVQVALENISTKSVLNAVNYKYAQLFHREQVSSAQSNTTSKQYIEERKTSNGTIGEVLRKFEKGRLLGKGGFAKVYQLTDIHTHQKYAGKIIPKNAIRKESAKQKLISEIRIHRELRHRHIVKFESCFEDQENVYIVLELCPNGSIMDMVRQRGRLTEYETRYFMIQILDAIRYMHRECLVIHRDLKLGNFFLDENMEVKIGDFGLAAQLSSDKERKRTICGTPNYIAPEILSGKQGHSFEVDIWSTGVVFYTMLVGKPPFETSDVKSTYKRIKENIYSIPESLDLSTSAIELIGSILNSDPAKRLSLDEIRSHPFFDAKIPRALSIHALKSTPVFEESELIERNKESSSYKKGRENRQQTVVGSSGLWNDVIQSISQDQRTPLQKLQQHIKSNAAKNNDHAEKLHQALEKHLQLNDNQSKKEEKLLESQEAHSKSTKGIFDKGLDTQSEDEERMVLNKVRDQLTSSFALLKNAEQSPYAFTSSLNTNDGTTSGSPSFQSPVNALTGGAWICKWLDYSKKYGLGYQTCLGSTGVCFNDGTQIILEKGQQNWIYYMKRTESHEERNENKWIKMTMEDYPSELQKKVKLLIHFRNYMLDHTPKGQEDPLISPESSFQNIDTSNETCGAKDATRPVYIKTWFRSPYAIIFRLSNRNIQVDFNDGTEVILSPEVHVVTYRGKDGRRNSYQQGHLPSLPELLKRLRYVMDLLQEMLNRKTS”: the “soluble on expression in E. coli” value is reported as “soluble”. Consider “MISSPHKLTGDIMTKRTKRTRRLFSAEFKLEAAQLVLDQNYSVTEAAQAMNVGKSTMDKWVRQLREERQGKTPKASPMTPEQIEIRELKKKLARLEEHNEILKKATALLMSDSLNNSLEHHHHHH”, for which the “soluble on expression in E. coli” value is on record as “soluble”.

As to “MITMNMNDYKNKRVPPDWCPGCGNFAQLSAITMALAELKIDPKDVVVASGIGCSSNMPEFLNTYGFHGLHGRLVPFAAGVKWANSKLTVIAYGGDGDGFFEGTQHFYHTAKRNVDITYMVSDNQVFGLTTGQASPTAPIGLKTKTTPDGNIETPFNPIAFALNAGATFVARAFSGDIKHLKDITVRAIKHKGFSFIDVISPCVTWNKENSYEYFRPRVYHLENNDVTNFDQAYKLAFEWGDHIPIGVFYEVERPTYEDLDEVLKEGPLVEQGIHKLTEDDLEEFA”, the “soluble on expression in E. coli” value is listed as “not soluble”.
